Test results: patent US20230168249A1 (ACADEMIA SINICA, published 2023)
Where two headings read alike, the source gives them in different places.

How the values were obtained:
MERS-CoV-N protein = target: T1, MERS-CoV-N protein (MERS-CoV, UniProt K9N4V7 1-411); assay: ELISA, IgG1 on recombinant N protein
T1 construct: also called MERS-CoV nucleocapsid protein

HCoV-OC43-N protein = target: T2, HCoV-OC43-N protein (HCoV-OC43, UniProt P33469 1-448); assay: ELISA, IgG1 on recombinant N protein
T2 construct: also called OC43-CoV N
T2 chain: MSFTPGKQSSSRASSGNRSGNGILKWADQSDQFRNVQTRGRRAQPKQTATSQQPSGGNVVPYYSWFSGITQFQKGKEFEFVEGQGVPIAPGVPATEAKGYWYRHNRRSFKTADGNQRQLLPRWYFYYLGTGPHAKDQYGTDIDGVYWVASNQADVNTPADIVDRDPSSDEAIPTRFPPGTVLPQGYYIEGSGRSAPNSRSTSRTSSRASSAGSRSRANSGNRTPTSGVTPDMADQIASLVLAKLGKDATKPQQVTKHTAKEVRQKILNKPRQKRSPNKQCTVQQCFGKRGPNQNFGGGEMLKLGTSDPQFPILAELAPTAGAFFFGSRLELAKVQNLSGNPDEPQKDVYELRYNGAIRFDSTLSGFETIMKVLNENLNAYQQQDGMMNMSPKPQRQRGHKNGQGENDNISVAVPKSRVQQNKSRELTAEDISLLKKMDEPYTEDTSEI

HCoV-NL63-N protein = target: T3, HCoV-NL63-N protein (HCoV-NL63, UniProt Q6Q1R8 1-377); assay: ELISA, IgG1 on recombinant N protein
T3 construct: also called NL63-CoV N
T3 sequence: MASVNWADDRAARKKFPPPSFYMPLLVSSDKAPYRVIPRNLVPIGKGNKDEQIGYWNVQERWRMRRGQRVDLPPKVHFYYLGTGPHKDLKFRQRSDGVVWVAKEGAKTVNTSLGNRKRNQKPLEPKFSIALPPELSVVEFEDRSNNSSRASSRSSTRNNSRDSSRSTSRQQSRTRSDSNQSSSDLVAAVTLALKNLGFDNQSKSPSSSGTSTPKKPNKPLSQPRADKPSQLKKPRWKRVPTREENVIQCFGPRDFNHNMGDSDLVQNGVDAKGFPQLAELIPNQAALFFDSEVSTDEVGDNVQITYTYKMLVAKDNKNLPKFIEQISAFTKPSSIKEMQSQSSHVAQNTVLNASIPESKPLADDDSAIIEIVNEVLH

HCoV-HKU1-N protein = target: T4, HCoV-HKU1-N protein (HCoV-HKU1, UniProt Q5MQC6 1-441); assay: ELISA, IgG1 on recombinant N protein
T4 construct: also called HKU1-CoV N
T4 chain: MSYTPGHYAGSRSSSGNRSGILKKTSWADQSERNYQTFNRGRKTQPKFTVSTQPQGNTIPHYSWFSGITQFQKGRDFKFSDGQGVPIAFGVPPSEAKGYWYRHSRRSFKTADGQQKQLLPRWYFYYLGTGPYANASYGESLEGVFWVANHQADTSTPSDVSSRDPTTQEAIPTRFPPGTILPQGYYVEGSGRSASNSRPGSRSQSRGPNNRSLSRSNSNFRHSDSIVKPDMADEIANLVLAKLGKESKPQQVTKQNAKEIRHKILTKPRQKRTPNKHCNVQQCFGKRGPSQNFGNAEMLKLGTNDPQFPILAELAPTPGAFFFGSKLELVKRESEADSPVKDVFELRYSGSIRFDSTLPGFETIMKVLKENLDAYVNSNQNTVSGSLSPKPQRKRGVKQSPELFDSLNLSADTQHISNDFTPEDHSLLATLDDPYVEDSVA

SARS-CoV-1-N protein = target: T5, SARS-CoV-1-N protein (SARS-CoV-1, UniProt P59595 1-422); assay: ELISA, IgG1 on recombinant N protein
T5 construct: also called SARS-CoV N; SARS-CoV-N

SARS-CoV-2-N protein [1] = target: T6, SARS-CoV-2-N protein (SARS-CoV-2, UniProt P0DTC9 1-419)
SARS-CoV-2-N protein [2] = target: T6, SARS-CoV-2-N protein; assay: ELISA, IgG1 on recombinant N protein

B1: antibody #11 (antibody, V domains shown)
VH: EVQLVESGGGLVQPGGSLRLSCAASGFTIQDRMIHWVRQAPGKGLEWVASILPFLGATWYADSVKGRFTISADTSKNTAYLQMNSLRAEDTAVYYCARSWFSPFDYWGQGTLVTVSS
VL: DIQMTQSPSSLSASVGDRVTITCRASQDVGGSVAWYQQKPGKAPKLLISFPGGLYSGVPSRFSGSGSGTDFTLTISSLQPEDFATYYCQQYFSWPITFGQGTKVEIKR
notes: also called D11; C11
- EC50 (MERS-CoV-N protein): > 2 µg/mL
- EC50 (HCoV-OC43-N protein): > 2 µg/mL
- EC50 (HCoV-NL63-N protein): > 2 µg/mL
- EC50 (HCoV-HKU1-N protein): > 2 µg/mL
- EC50 (SARS-CoV-1-N protein): 0.0069 µg/mL

B2: antibody #7 (antibody, V domains shown)
VH: EVQLVESGGGLVQPGGSLRLSCAASGFTIEDRWIHWVRQAPGKGLEWVASIWPMEGLTRYADSVKGRFTISADTSKNTAYLQMNSLRAEDTAVYYCARGYYGFDYWGQGTLVTVSS
VL: DIQMTQSPSSLSASVGDRVTITCRASQDVEARVAWYQQKPGKAPKLLIFTSTRLYSGVPSRFSGSGSGTDFTLTISSLQPEDFATYYCQQIMPLPTTFGQGTKVEIKR
notes: also called C07
- EC50 (SARS-CoV-2-N protein [1]): 0.018 µg/mL
- EC50 (MERS-CoV-N protein): > 2 µg/mL
- EC50 (HCoV-OC43-N protein): > 2 µg/mL
- EC50 (HCoV-NL63-N protein): > 2 µg/mL
- EC50 (HCoV-HKU1-N protein): > 2 µg/mL
- EC50 (SARS-CoV-1-N protein): 0.0037 µg/mL
- EC50 (SARS-CoV-2-N protein [2]): 0.0037 µg/mL

B3: antibody #33 (antibody, V domains shown)
VH: EVQLVESGGGLVQPGGSLRLSCAASGFTINNGGIHWVRQAPGKGLEWVAGIWPFWGSTSYADSVKGRFTISADTSKNTAYLQMNSLRAEDTAVYYCARGSYGFDYWGQGTLVTVSS
VL: DIQMTQSPSSLSASVGDRVTITCRASQDVYSSVAWYQQKPGKAPKLLIFGSSFLYSGVPSRFSGSGSGTDFTLTISSLQPEDFATYYCQQYYDWPITFGQGTKVEIKR
notes: also called D33; C33
- EC50 (SARS-CoV-2-N protein [1]): 0.0255 µg/mL
- EC50 (MERS-CoV-N protein): > 2 µg/mL
- EC50 (HCoV-OC43-N protein): > 2 µg/mL
- EC50 (HCoV-NL63-N protein): > 2 µg/mL
- EC50 (HCoV-HKU1-N protein): > 2 µg/mL
- EC50 (SARS-CoV-1-N protein): 0.0016 µg/mL
- EC50 (SARS-CoV-2-N protein [2]): 0.0014 µg/mL

B4: antibody #21 (antibody, V domains shown)
VH: EVQLVESGGGLVQPGGSLRLSCAASGFTINNGSIHWVRQAPGKGLEWVAWIWPFGGYTYYADSVKGRFTISADTSKNTAYLQMNSLRAEDTAVYYCARGSYGYDYWGQGTLVTVSS
VL: DIQMTQSPSSLSASVGDRVTITCRASQDVGSNVAWYQQKPGKAPKLLIFSAPFLYSGVPSRFSGSGSGTDFTLTISSLQPEDFATYYCQQFYDWPLTFGQGTKVEIKR
notes: also called D21
- EC50 (MERS-CoV-N protein): > 2 µg/mL
- EC50 (HCoV-OC43-N protein): > 2 µg/mL
- EC50 (HCoV-NL63-N protein): > 2 µg/mL
- EC50 (HCoV-HKU1-N protein): > 2 µg/mL
- EC50 (SARS-CoV-1-N protein): 0.0214 µg/mL
- EC50 (SARS-CoV-2-N protein [2]): 0.018 µg/mL

B5: antibody #36 (antibody, V domains shown)
VH: EVQLVESGGGLVQPGGSLRLSCAASGFTINRYSIHWVRQAPGKGLEWVAGIWPFGGDTTYADSVKGRFTISADTSKNTAYLQMNSLRAEDTAVYYCARGATSHDYWGQGTLVTVSS
VL: DIQMTQSPSSLSASVGDRVTITCRASQDVTTTVAWYQQKPGKAPKLLINKGSWLYSGVPSRFSGSGSGTDFTLTISSLQPEDFATYYCQQYNKWPLTFGQGTKVEIKR
notes: also called IgG1#36; D36
- EC50 (SARS-CoV-2-N protein [1]): 0.0288 µg/mL
- EC50 (MERS-CoV-N protein): > 2 µg/mL
- EC50 (HCoV-OC43-N protein): > 2 µg/mL
- EC50 (HCoV-NL63-N protein): > 2 µg/mL
- EC50 (HCoV-HKU1-N protein): > 2 µg/mL
- EC50 (SARS-CoV-1-N protein): 0.002 µg/mL
- EC50 (SARS-CoV-2-N protein [2]): 0.0008 µg/mL

B6: antibody #22 (antibody, V domains shown)
VH: EVQLVESGGGLVQPGGSLRLSCAASGFTISSGSIHWVRQAPGKGLEWVASIWPFGGYTSYADSVKGRFTISADTSKNTAYLQMNSLRAEDTAVYYCARGSFGSDYWGQGTLVTVSS
VL: DIQMTQSPSSLSASVGDRVTITCRASQDVDDNVAWYQQKPGKAPKLLISSSSGLYSGVPSRFSGSGSGTDFTLTISSLQPEDFATYYCQQSYNGPITFGQGTKVEIKR
notes: also called D22
- EC50 (MERS-CoV-N protein): > 2 µg/mL
- EC50 (HCoV-OC43-N protein): > 2 µg/mL
- EC50 (HCoV-NL63-N protein): > 2 µg/mL
- EC50 (HCoV-HKU1-N protein): > 2 µg/mL
- EC50 (SARS-CoV-1-N protein): 0.0039 µg/mL
- EC50 (SARS-CoV-2-N protein [2]): 0.0044 µg/mL

B7: antibody #48 (antibody, V domains shown)
VH: EVQLVESGGGLVQPGGSLRLSCAASGFTISNFGIHWVRQAPGKGLEWVAGIWPYGGYTFYADSVKGRFTISADTSKNTAYLQMNSLRAEDTAVYYCARFDSYSYSGYMDYWGQGTLVTVSS
VL: DIQMTQSPSSLSASVGDRVTITCSGSSSNIGDNNVYWYQQKPGKAPKLLIFGPAYLYSGVPSRFSGSGSGTDFTLTISSLQPEDFATYYCAAGYSDNNGITFGQGTKVEIKR
notes: also called C48
- EC50 (SARS-CoV-2-N protein [1]): 0.0207 µg/mL
- EC50 (MERS-CoV-N protein): > 2 µg/mL
- EC50 (HCoV-OC43-N protein): > 2 µg/mL
- EC50 (HCoV-NL63-N protein): > 2 µg/mL
- EC50 (HCoV-HKU1-N protein): > 2 µg/mL
- EC50 (SARS-CoV-1-N protein): 0.0186 µg/mL
- EC50 (SARS-CoV-2-N protein [2]): 0.0467 µg/mL
